From the DeepSol protein solubility set

Test: soluble on expression in E. coli; label from the status in PepcDB or PDB records
With “MVRILPIILSALSSKLVASTILHSSIHSVPSGGEIISAEDLKELEISGNSICVDNRCYPKIFEPRHDWQPILPGQELPGGLDIRINMDTGLKEAKLNDEKNVGDNGSHELIVSSEDMKASPGDYEFSSDFKEMRNIIDSNPTLSSQDIARLEDSFDRIMEFAHDYKHGYKIITHEFALLANLSLNENLPLTLRELSTRVITSCLRNNPPVVEFINESFPNFKSKIMAALSNLNDSNHRSSNILIKRYLSILNELPVTSEDLPIYSTVVLQNVYERNNKDKQLQIKVLELISKILKADMYENDDTNLILFKRNAENWSSNLQEWANEFQEMVQNKSIDELHTRTFFDTLYNLKKIFKSDITINKGFLNWLAQQCKARQSNLDNGLQERDTEQDSFDKKLIDSRHLIFGNPMAHRIKNFRDEL” the “soluble on expression in E. coli” value was “soluble”.
With “MKELKQAEQIRTWVQSILTDESSGHDWHHVSRVADLAAYIGEKEKADLFIVETAALVHDLIDVKLPDTVRLSVSEVYDQLVFFGVGKENADRVIHIITRMSFRDRGKLAKEPLSIEGKAVQDADRLDAIGAVGIARAFMFAGAKGHGLYGDEQSAYAHFFHKLLRLKDMMNTDTARELAEERHNFMLQFVRQLEKDIPGIDAETSLEHHHHHH” the “soluble on expression in E. coli” value was “soluble”.
For “MSAPTTFSVALHNETATAQLMADLALLVGPGDVITLTGDLGAGKTAAARAMIRYLADDEALEVPSPTFTLVQGYELPPFPVMHADLYRVEDESELEEIGLSPLPDATLVLIEWPERAPSALPEDRIDIALTHRPALGSNARAADITGYGKSAAQVARLKALREFLDASGYLDAMRRRMAGDASTRSYARLLRDDEIVILMNFPQRPDGAALYNGKSYSAAVHLAENVKPFVAIDEGLRAQGISAPAIHHADLDHGFLISEDFGSEGVIEGNPPRPIPERYEAATDVLAVLHGKTLPETLPLDGQSYAIPVFDTEAMLIEIGLMPEWYLPDRNAPLSEPKRAEFFAMWRELLKKPLAAPRTWIIRDYHSPNLIWLGMRTGIERVGVIDFQDTVLGPQSYDVVSLLQDARIDVPENLELTLLSRYIKARRAGDASFDPAGFAELYAIMSAQRNTRLLGTFARLNRRDGKPHYLRHQPRIWTYLQRSLAHPALSHLRDWYLANVPPPQRPSQEPAPEPPQGLEHHHHHH”, the “soluble on expression in E. coli” value was “soluble”.
With “MEQTLRVSVFGATGYTGIELLRSLLTHPHFEVKNLISQSYKGKKVREVLPFFSNTYISEIEFLEEPVEDYELAFLCLPHEVSYEIVPKLLSQGKKVVDLSGAYRIKSPKAYEEFYGFKHEREDILQRAVYGLPEVFREEIKNSDLVANPGCYPTATLLAIYPFLKERVGIESVIVHALSGVSGAGRKPKQQFHFPEMTENFFNYAVEKHRHTPEMEDVIRRVYGREVKVRFTPTVVPTSRGMISTVYLKSEKLNVKELFKEVYEDEIFVKVVDEPPQTKWVLGTNYCFIYPHYDERTGYYVIISAIDNLGKGASLQAVQNANLMFGLAEDDGLLQLPVFP” the “soluble on expression in E. coli” value was “soluble”.
With “MGSDKIHHHHHHMTSRSPFESFVWQSEIFNCQSNDIDAFYAQLAEEVNRLGLKKNTLGSVDSFAINLYQSASQRSDLPSLLISSGFHGEEAAGPWGMLHFLRGLQPALFERVNLSLLPLVNPTGFKAGHRFNRFGENPNRGFTLENGKPTPNEHTSLEGKLLLEHAQLLCAASRDGILTCHEDVLMNETYVYSFEPTQTPGRFSLGLRDALGQYFKLAKDGFIDECPVTDGVIFNHFDTSFEAFLVRSGAKLAACSETPGQEDFDRRVQANSAAMGQFIAHCAPIL” the “soluble on expression in E. coli” value was “not soluble”.
With “MGHHHHHHSHMRENNLHTVCEEAKCPNIHECWAVRRTATFMILGSVCTRACRFCAVKTGLPTELDLQEPERVADSVALMNLKHAVITAVARDDQKDGGAGIFAETVRAIRRKSPFTTIEVLPSDMGGNYDNLKTLMDTRPDILNHNIETVRRLTPRVRARATYDRSLEFLRRAKEMQPDIPTKSSIMIGLGETKEEIIEVMDDLLANNVDIMAIGQYLQPTKKHLKVQKYYHPDEFAELKEIAMQKGFSHCEAGPLVRSSYHADEQVNEASKKRQAQA” the “soluble on expression in E. coli” value was “soluble”.
For “MGSDKIHHHHHHMLDCHEDTLVILAKNIAVEMHYHHAIQLVLSLDKPYDAVLDHQPIESVKGFLIDSDIPHACQSADSTVLVISVDASSSKGRLLKSHLLKRTFILIDELFSAEAIDEFLNFYWRCCDTSQHEFDPLYFLHKLSHEQRNITPFDARLLIAIDFINQDISQIIKVIDIARHISLSESRLRHLFTEQVGIPLTKYVLWVRMKVALREMLKPGVTLSDAAHQAGFTDHAHFTRTFRRMFGVSPSLLLKYGQFLQIFGL”, the “soluble on expression in E. coli” value was “not soluble”.
In the case of “SKAWLHQYSVVGRKIPTQEEPEPPIYRLKIFAPNVVNAKSRFWYFLRKLKRVKKSSGEILNISEIFEKKSTQVKNYGIWIRYKSRSDTINMYREYRDVTVNGAVEQMYKDMSGRHRARWSSIWVLKAMPVAAKDCRRSKVTQFHDSKIKFALPHMRPRAPLKKYNTPFKAKRPTTIVQ”, the “soluble on expression in E. coli” value is reported as “soluble”.
